According to patent US6383761B1, “Methods and compositions for identifying modulators of G-protein-coupled receptors” (The Regents of the University of California, priority 1997, dated 2002):

Legend:
m2 muscarinic receptor = target: T1, m2 muscarinic receptor (Homo sapiens, UniProt P08172); assay: PI hydrolysis assay (IP1 accumulation) in COS-7 cells co-transfected with receptor and Gαq construct; format: cell-based; details: carbachol 100 μM, pertussis toxin pretreatment 500 ng/ml
T1 sequence (P08172 1-466): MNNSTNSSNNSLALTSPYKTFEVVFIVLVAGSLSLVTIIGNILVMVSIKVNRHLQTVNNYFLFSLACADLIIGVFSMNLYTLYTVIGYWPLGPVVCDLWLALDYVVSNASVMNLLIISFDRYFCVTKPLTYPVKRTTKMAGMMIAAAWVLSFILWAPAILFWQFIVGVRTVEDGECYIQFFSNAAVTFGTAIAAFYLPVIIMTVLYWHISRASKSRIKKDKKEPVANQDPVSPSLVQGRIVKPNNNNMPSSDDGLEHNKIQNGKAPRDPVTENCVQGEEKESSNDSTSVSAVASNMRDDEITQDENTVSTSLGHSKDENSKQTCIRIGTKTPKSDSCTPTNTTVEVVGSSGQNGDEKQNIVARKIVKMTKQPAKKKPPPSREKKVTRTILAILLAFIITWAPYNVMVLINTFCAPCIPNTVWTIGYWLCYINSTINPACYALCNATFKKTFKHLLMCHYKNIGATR

D2 dopamine receptor = target: T2, D2 dopamine receptor (Homo sapiens, UniProt P14416); format: cell-based
T2 construct: expressed in transfected cells; host or cells: COS-7
T2 sequence (P14416 whole entry): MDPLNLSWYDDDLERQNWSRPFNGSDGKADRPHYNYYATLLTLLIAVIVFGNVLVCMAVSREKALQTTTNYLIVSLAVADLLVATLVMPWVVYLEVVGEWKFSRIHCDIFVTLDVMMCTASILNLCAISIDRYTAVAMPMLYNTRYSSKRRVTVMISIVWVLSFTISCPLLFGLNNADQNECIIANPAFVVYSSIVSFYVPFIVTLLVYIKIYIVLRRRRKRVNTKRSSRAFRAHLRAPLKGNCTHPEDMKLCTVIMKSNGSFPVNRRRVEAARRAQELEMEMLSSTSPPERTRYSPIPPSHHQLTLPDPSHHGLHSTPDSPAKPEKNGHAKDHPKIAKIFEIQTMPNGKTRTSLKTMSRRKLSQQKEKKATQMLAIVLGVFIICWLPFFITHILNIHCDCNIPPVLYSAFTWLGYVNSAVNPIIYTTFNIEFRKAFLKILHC

## pertussis toxin
m2 muscarinic receptor; m2 receptor co-expressed with −6q
  block of agonist-induced PI response: partly blocked
m2 muscarinic receptor; m2 receptor with vector DNA or WTq
  block of agonist-induced increase in inositol phosphate production: almost completely blocked
D2 dopamine receptor
  block of agonist-induced PI response: partly blocked
  block of agonist-induced increase in inositol phosphate production: almost completely blocked
